# Laboratory results: PMC4287573
# Target: HA-tagged HNRNPK (heterogeneous nuclear ribonucleoprotein K), wild type (human) (UniProt P61978)
# Experiment: co-IP; anti-HA agarose beads on lysates of Huh7.5 cells stably expressing HA-tagged HNRNPK or its deletion mutants, 48 h after electroporation with a subgenomic JFH1 replicon or genomic HCV RNA; lysis buffer 20 mM Tris-HCl pH 7.5, 0.5% Nonidet P-40, 1 mM sodium deoxycholate, 100 mM NaCl; 3 h at 4°C; elution with HA peptide; immunoblot; cells with non-tagged HNRNPK as control
substance,measurement,value
HCV core protein (natural protein),percent of the intracellular HCV protein coprecipitated,1%
